From publication PMC10785082 (ACS Omega, 2023)
Blank lines part the entries; values can stand above or below the compound they belong to.

Legend:
[1] = target: T1, USP3 ZnF-UBD (Homo sapiens, UniProt Q9Y6I4); experiment: SPR binding to USP3 ZnF-UBD
T1 sequence (Q9Y6I4 1-131): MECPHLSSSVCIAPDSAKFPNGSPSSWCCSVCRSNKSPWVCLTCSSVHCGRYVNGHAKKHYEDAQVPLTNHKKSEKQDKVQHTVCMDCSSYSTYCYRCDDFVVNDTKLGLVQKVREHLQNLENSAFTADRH

[2] = target: E3 ligase CDC20; conditions: read-out: KD for CDC20; cited from earlier work
[3] = target: T2, USP13 ZnF-UBD (Homo sapiens, UniProt Q92995); experiment: SPR binding to USP13 ZnF-UBD
T2 sequence (Q92995 183-307): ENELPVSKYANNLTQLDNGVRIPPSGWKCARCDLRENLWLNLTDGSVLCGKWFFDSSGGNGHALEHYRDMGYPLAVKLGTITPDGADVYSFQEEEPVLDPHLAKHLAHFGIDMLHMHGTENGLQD

[4] = target: T3, USP49 ZnF-UBD (Homo sapiens, UniProt Q70CQ1); experiment: SPR binding to USP49 ZnF-UBD
T3 sequence (Q70CQ1 1-115): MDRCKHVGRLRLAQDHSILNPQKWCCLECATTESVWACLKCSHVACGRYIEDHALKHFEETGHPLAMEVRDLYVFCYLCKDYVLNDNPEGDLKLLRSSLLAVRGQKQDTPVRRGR

[5] = target: T4, USP39 ZnF-UBD (Homo sapiens, UniProt Q53GS9); experiment: SPR binding to USP39 ZnF-UBD
T4 sequence (Q53GS9 84-194): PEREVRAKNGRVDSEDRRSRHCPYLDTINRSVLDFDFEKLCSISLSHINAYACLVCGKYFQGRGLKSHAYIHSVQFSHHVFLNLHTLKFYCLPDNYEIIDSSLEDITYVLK

[6] = target: USP20 ZnF-UBD (Homo sapiens, UniProt Q9Y2K6); experiment: SPR binding to USP20 ZnF-UBD
Chain of USP20 ZnF-UBD (Q9Y2K6 1-141): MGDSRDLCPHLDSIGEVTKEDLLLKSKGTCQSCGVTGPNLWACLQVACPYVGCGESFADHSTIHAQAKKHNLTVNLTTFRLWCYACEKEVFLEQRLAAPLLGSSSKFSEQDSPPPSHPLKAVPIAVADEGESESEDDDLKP

[7] = target: USP16 ZnF-UBD (Homo sapiens, UniProt Q9Y5T5); experiment: SPR binding to USP16 ZnF-UBD
Chain of USP16 ZnF-UBD (Q9Y5T5 25-185): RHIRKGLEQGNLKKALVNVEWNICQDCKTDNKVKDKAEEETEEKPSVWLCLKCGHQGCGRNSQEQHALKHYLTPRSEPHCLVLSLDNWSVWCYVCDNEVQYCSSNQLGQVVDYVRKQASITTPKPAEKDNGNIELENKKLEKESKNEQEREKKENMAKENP

[8] = target: T5, USP5 ZnF-UBD (Homo sapiens, UniProt P45974); experiment: SPR binding to USP5 ZnF-UBD
T5 sequence (P45974 171-290): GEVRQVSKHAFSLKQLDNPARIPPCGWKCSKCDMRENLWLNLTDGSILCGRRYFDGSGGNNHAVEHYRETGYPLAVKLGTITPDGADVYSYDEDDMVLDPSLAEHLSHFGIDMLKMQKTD

[9] = target: T6, HDAC6 ZnF-UBD (Homo sapiens, UniProt Q9UBN7); experiment: SPR binding to HDAC6 ZnF-UBD
T6 sequence (Q9UBN7 1109-1215): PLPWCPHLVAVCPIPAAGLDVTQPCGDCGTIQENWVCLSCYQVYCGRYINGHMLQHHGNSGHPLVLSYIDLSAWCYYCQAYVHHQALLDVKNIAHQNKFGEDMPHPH

[10] = target: T7, BRAP ZnF-UBD (Homo sapiens, UniProt Q7Z569); experiment: SPR binding to BRAP ZnF-UBD
T7 sequence (Q7Z569 304-390): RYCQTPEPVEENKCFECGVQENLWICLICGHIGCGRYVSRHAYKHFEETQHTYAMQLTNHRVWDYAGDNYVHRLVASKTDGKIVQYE

[11] = target: T8, USP33 ZnF-UBD (Homo sapiens, UniProt Q8TEY7); experiment: SPR binding to USP33 ZnF-UBD
T8 sequence (Q8TEY7 29-134): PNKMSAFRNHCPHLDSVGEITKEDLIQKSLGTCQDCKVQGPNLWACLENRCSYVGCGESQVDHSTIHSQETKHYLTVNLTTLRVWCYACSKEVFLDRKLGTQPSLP

[12] = target: T9, USP51 ZnF-UBD (Homo sapiens, UniProt Q70EK9); experiment: SPR binding to USP51 ZnF-UBD
T9 sequence (Q70EK9 176-305): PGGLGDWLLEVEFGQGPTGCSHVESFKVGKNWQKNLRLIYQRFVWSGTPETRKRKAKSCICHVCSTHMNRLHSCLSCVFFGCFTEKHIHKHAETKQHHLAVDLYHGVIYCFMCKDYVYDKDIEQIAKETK

Kd ([1]; KD (µM) USP3): 191 µM
Compound: O=C(O)CNc1ncnc2ccccc12 [Compound 25]

Compound: Cc1ncc([N+](=O)[O-])n1CCOC(=O)NC(Nc1ncccn1)C(Cl)(Cl)Cl (stereo not shown) [Apcin]
Kd [2]: 10 µM

KD (µM) USP13 [3]: No binding | KD (µM) USP49 [4]: No binding | KD (µM) USP3 [1]: No binding | KD (µM) USP39 [5]: No binding | KD (µM) USP20 [6]: No binding | KD (µM) USP16 [7]: No binding | KD (µM) USP5 [8]: No binding | KD (µM) HDAC6 [9]: No binding | KD (µM) BRAP [10]: No binding | KD (µM) USP33 [11]: No binding | KD (µM) USP51 [12]: No binding
Compound: Ub-RGGdel: C-terminal RGG-deleted Ub construct, negative control in the SPR assay
